# Assay results: the DeepSol protein solubility set
# Experiment: soluble on expression in E. coli; label from the status in PepcDB or PDB records
row,Sequence,soluble on expression in E. coli
1,MSAALVAQQVATLREQGFVVVRNFASPPVRQALRELALQHLAQTVDPVEYEADLKYPGAPSSRLAAGGQTVRRLLDAYGRDQRFRDWATQAAIGAFLRAYFQDTPVLSTVHHNCIMTKHPAFGSLTGWHQDIRYWSFSDDDLVSCWLALGDERADNGGLYFVPGSHTASFMPEQYDARKFFRDDLPQNQEWIGRAVCPELQAGDVVFFHCRTLHAARQNATDTVKLSLVHTYHPASCHPLPGTRSAGSPGVPLPLEHHHHHH,soluble
2,MSQVMEVVGGKWRLNVLWVINKYQSIRFNQLKREVNGITTIMLTRSLDILITNELVEKVDFQTLPLHVKYQLSSKGKSLMPLLKQINQWGKLYLLEHHHHHH,not soluble
3,MARQKDTFYFEGFRRSADYACQAAKLLSEVMHDFNPGQLRERMDSMHAIEKSADEVRHDMMDELVTAFITPFDREDIDELGHVLDDVTDSIEGVLNRMYYDNVTDMRDDAVQMSDMVVRATESICELVNELPRFRHSKTLRELVFAINTIETDADHLFIESMRTLHTTCTDPLQVFAWHDVYRHLEQCSDDCERVANTIDSIVMKNSLEHHHHHH,soluble
4,MAHHHHHHMSFKEMRLAFEGSKNIYESSLLTFKGVDGYDVYNCSLLFQYKGKHHLFGRFERREKSSDSRVRLFVETGKDEYTVVPDQLTYQLEDPFVSKVQGSLFFGGTQVIKSGGNVTGYFCDFYHGMPQLLTYYTTGPDLMRSIRIVQLADGTIGIFSCHKTEGSCLIGFTTVNSLNEVTREVIAEAKPINNAPFLGAWGGVNQAYLLSSGNIGCICHHGYLDKDANGEQRNVCCITSFVYDPKRNNTHTFQLIGTRGCFPDCPSKSPSVADCAFASGIVMREDGKCDLYSGLGDTHEGRITIDYPFKGYGTVVNDLVF,soluble
5,MTTLLRLATAGSVDDGKSTLIGRLLYDSKAVMEDQWASVEQTSKDRGHDYTDLALVTDGLRAEREQGITIDVAYRYFATPKRKFIIADTPGHIQYTRNMVTGASTAQLVIVLVDARHGLLEQSRRHAFLASLLGIRHLVLAVNKMDLLGWDQEKFDAIRDEFHAFAARLDVQDVTSIPISALHGDNVVTKSDQTPWYEGPSLLSHLEDVYIAGDRNMVDVRFPVQYVIRPHTLEHQDHRSYAGTVASGVMRSGDEVVVLPIGKTTRITAIDGPNGPVAEAFPPMAVSVRLADDIDISRGDMIARTHNQPRITQEFDATVCWMADNAVLEPGRDYVVKHTTRTVRARIAGLDYRLDVNTLHRDKTATALKLNELGRVSLRTQVPLLLDEYTRNASTGSFILIDPDTNGTVAAGMVLRDVSARTPSPNTVRHRSLVTAQDRPPRGKTVWFTGLSGSGKSSVAMLVERKLLEKGISAYVLDGDNLRHGLNADLGFSMADRAENLRRLSHVATLLADCGHLVLVPAISPLAEHRALARKVHADAGIDFFEVFCDTPLQDCERRDPKGLYAKARAGEITHFTGIDSPYQRPKNPDLRLTPDRSIDEQAQEVIDLLESSS,not soluble
6,MSLGQKGHKDSLYPCGGTPESSLHEALDQCMTALDLFLTNQFSEALSYLKPRTKESMYHSLTYATILEMQAMMTFDPQDILLAGNMMKEAQMLCQRHRRKSSVTDSFSSLVNRPTLGQFTEEEIHAEVCYAECLLQRAALTFLQDENMVSFIKGGIKVRNSYQTYKELDSLVQSEGHHHHHH,not soluble
7,MAHHHHHHMKVKKKIVKKINKNSNVKIYKSSKHVNEVNNNTLTNNNEVKQNNEYYESFFIPKNLTEFNFKDNDKQLYYLMSLLNEIHDIFYIMLEQFKRKETNDENRDDQIYNYFLRYPVVRTILTQYRKQVLKGFTFNISLLSDDIKRSDFMDNIVKFGGLINNQDYNHLLTVNTFIENENIKNVSTSNLMWLERALYTWK,not soluble
8,MKYILFATAGHVDHGKTTLIKTLTGIDTDRLPEEKKRGLSIDIGFAYIDFPDINTRLEIIDVPGHERFIKNAIAGICSASGLILVVDPNEGIMPQTIEHLRVAKSFGIKHGIAVLTKMDKVDEELAHIAEEELIAFLEKEEMNMEIVKVSAVTGQGIEDLKNSIKKLLESINNLNKHKPLRIFVDSAFVVKGYGTVLRGSCFEGEVKEGDKVVVEPIGVISRVRKMQNHGVFVKKAVAGERIALNLPEVDAKKVKRGFLILKPESYEKSNVLIVKTEIDLKPGKIYQVFFGMRETVGKISVIDKGIYLVRLKENAIVRRGDKLVVLDSSGNFLGGAEVLHPKVRVTKKAFIKKNIKDLLENFECYLLKERGPIGLKLEFFKRITGVSPKVANLKPESIEIRGVYYLKGFIENLKLKIKKFLDTELQNAFGVDKEKVKSMFSLNEELLKYILDELKTYKIVNELIIDERKSDLEKNEDFQKLMSILKGGIKEEREIILEGIPKEILTLSIKRKYAHRIGEYLIISDELLKKYINELKELGKTFNVQQAKNKLGLTRKYLIPLLEYLDYLGLTVREGNERRWKR,soluble
9,MSLASKPSLLFVDDSKVMRLAADKMLGREFRVEVAENGLQAWTMVCHNPSISVVFSDLAMPEMDGFALLKKIRTSEDEGVAGLPVIIVTGAENDDEARAEALRLGGTDFISKPFNSTDLLARARAHANYQNERKEFAKQAMIDPLTRLGNRRYLLHRLRQELALAARQQYRLSVVQLEICQFNQLFVQLGKKRTDMVLLKLAQSLRGVIRKEDSLARSSVAQFTVLLPSAGPNGAKRFVERALKVSERLAFQFRGKVQRLPLTVIIHTPAVHAGLAPRQVQLALEEQLKQARKLGPGTVLSDDADTTLSVDESAPILTIEQALVLLRAGKPRAVVSALPDLERQLAPLLELMKRSASDQEGHHHHHH,not soluble
10,MTWLDEKGRFAIYEAPQNCPYLGTIGTCYEFGSLPVILMFPELEKLFLKLLISYVRNDGYVPHDLGFHSLDSPIDGTTSPPKWKDMNPSLILLVYRYFKFTNDIDFLKEVYPTIVKVMDWELRQCRDGLPFMEGEMDNAFDATIIKGHDSYTSSLFIASLIAMREIAKLVGDSNYVGFINEKLNVAREAFRKMFNGKYFKAWDGVDKASFLAQLYGEWFTTLLELENIVDENMIKSALESIIRLNGNASPYCVPNLVDENGKIVNLSVQTYSSWPRLVFAICWLAYKKGVGDLSFCKKEWDNLVRNGMVWDQPSRINCYTGKPEINYLDHYVGSPSLWSFLFLEHHHHHH,not soluble
11,MGFAFKRGISTPDLALITRQLATLVQSGMPLEECLRAVAEQSEKPRIRTMLVAVRAKVTEGYTLSDSLGDYPHVFDELFRSMVAAGEKSGHLDSVLERLADYAENRQKMRSKLQQASENLYFQ,soluble
12,DFELLHKLGGGNYGDVHLASVKDCNFVCALKRLSIKKLADFDIATQLRREIEIAFNTRHKYLLRTYAYFFDETDIYLIMEPCSNGMLYTELNRVKCFAPPTAARYVAQLAEALLYLHQHHILHRDIKPENILLDHNNNIKLADFGWSVHDPDNRRKTSCGTPEYFPPEIVGRQAYDTSADLWCLGIFCYELLVGKTPFVGKDTDQICKNIHSMHFKIPENIPSEAKDLIANLLLRDGSRRLALHRVVNHQFLLKYYYLPNNL,soluble
13,MSLSLNFLDFEKPIVELETKIQALRDVSRHSTSASVDLDKELEQLEKKSLELKKKIFSDLGAWQVAQLARHPQRPYTLDYLKHIFTEFDELAGDRAYADDKAIVGGIARLEGRSVMVIGHQKGRETREKVKRNFGMPKPEGYRKALRLMEMAERFNMPIITFIDTAGAYPGVGAEERGQSEAIAKNLKVMSGLKVPVICNVVGEGGSGGALAIGVGDYVNMLQYSTYSVISPEGCASILWRDSDKAPQAAEAMGLIAPRLKELELIDEIIEEPLGGAHRDHKQTAENVKATLLRQLADLDALDHENLLERRYQRLMNYGYCEGHHHHHH,soluble
14,MAPSQPTQNAQTVSSVMTETPTYTSSSRSVESTAGTIAASEEATMTLLENSSGDPGSDSGGARYSLNSLKVSEQAAANAVLKAVLNDVSYQEFADSSYLEITGTPSADGTWGISFGGPSESASVEFSDGSISFSPVDMTVPATRLPQMGAFYETLTEEQLGMLETGLAVSTVDSSQQEMLLDLVSNSIGLADTETTATAISKIRATLSETYLFGTPDGLTLALSGPHVDFEVSHQGSTAKITYRDPSTDTLTAEDRVDTASVAAAPPEVVLEHHHHHH,soluble
15,MSLTEEFVNKEDALKNYNAKEFRTPDGYTSDMILTTVKELNGKPTLHILLIKRSLTNAEGKPNMEGGKWAVPGGFVDENESAEQAAERELEEETSLTDIPLIPFGVFDKPGRDPRGWIISRAFYAIVPPEALEKRAAGDDAAEIGLFPMTEALELPLAFDHLDMLKKAFSAITEEFLLTTAIRDFLPETFSAELLYQTLEGCTKPGILPDEVEFMENIEYLPYLEKVGDLYRFNADAEAGSIYFEGHHHHHH,soluble
16,MGSDKIHHHHHHMARFMGSETEYGISTPSAPFLSPIVTSTHAVVAYSTARGFGEHRVRWDYAQESPLRDTRGFDLRRYHQAPVVDPHAIGVANVFVPNGARFYVDHAHPEYSSPEVTNAWDAMVYDAAGDHILMQAVSDVASFTSQNRSVLDGHDPCPALKIYKNNVDGKGASYGSHENYLYSRETDFDVLAQALIPFFVCRQVIIGAGRVGLGPQGDKPGFQVSQRADYIEQEISLETTLNRGIINTRDEPHTDADHWGRLHVIIGDANMSQTANFLKFGMTSLVLDAIEAGVDFSELKLKNAVSEVAKVSHDLSLTHQLRLADGSELTAIDILRRYLDKVQPFAETPVEQRVTALWGEVLGLLENDLLSTSHLLDWTAKLALIKSFEARGLSINDPKMYLIDLQYSDIDPQKSLYHALVSKGRMKTLCSAQDIADAAATPPQDSRAYFRGRVMDKFGESVLAANWESLIVATSSAKEYRVHTSGLDTLTREEAGELVEKSATIDELIEGLEKENLTPLTAIQAI,not soluble
17,MTVERIAEQPLDSELGHFNLITYRDSVEGDVHLALTLGKVCAEEPTLVRVHNMDPLRDLLQVNQPGRWSLRAAMTKVAEAGSGVVLLLGHQIGGDDLLAHVREIASAPAPAPKATTTYSTVGAGSQILRDLGVRKMRLLSAPMRFNAISGFDLEVVEYLPA,soluble
18,MSLQNGKIKGLIFDCYKTLIDIRTDEGSWETNEKVSKWLLYQGVRIEPDRLREEYKWKVIGRLGNSGQKYPDIRIEEIFAEICAENAFREINPFWLGIEAAKVFRTSSLKKLEAYPQSLRLLDKYRNVPKCIVSNAQRVFTEQELHFLGLYDRFNFIIMSSDHRIKKPDTRLFKMALDGLKLEPWEVLSIGDTPENDIYAPQSLGINAMHIRDAWRCVEGHHHHHH,soluble
19,MSDGETAVIQSLAPGPIDGVSYPLKMVYCGQCSMPPEYCDYSGQTDVCRAWATQNAPELLEGLEISDEPAADGDEKKKQKRGGKGSKTGAAAAQAAASGGKKKGGGPQKVTLQREPRGKKSVTVIKGLATFDIDLKVASKLFAQKFACGSSVTGADEIVIQGDVKDDLLDLIPEKWKQVTDEQIDDLGDKKR,soluble
20,GSMHEYSVVSSLIALCEEHAKKNQAHKIERVVVGIGERSAMDKSLFVSAFETFREESLVCKDAILDIVDEKVELECKDCSHVFKPNALDYGVCEKCHSKNVIITQGNEMRLLSLEMLAE,soluble
21,MAGPSWRHIRAEGLDCSYTVLFGKAEADEIFQELEKEVEYFTGALARVQVFGKWHSVPRKQATYGDAGLTYTFSGLTLSPKPWIPVLERIRDHVSGVTGQTFNFVLINRYKDGCDHIGEHRDDERELAPGSPIASVSFGACRDFVFRHKDSRGKSPSRRVAVVRLPLAHGSLLMMNHPTNTHWYHSLPVRKKVLAPRVNLTFRKILLTKKLEHHHHHH,soluble
22,GHFAPQQMKEAIEIYKTLFEPSDVLDEPYVIVCLNTIVAENDDEAQYLASSMAQVMVSITRGRMQPVQPPTHDLQNILTPREYAMAMERQKISLIGSENTVQQKIQDFMETYGEVNEIMAISYIYDKDMQLDSYRRFKN,not soluble
